Measured values taken from article PMC2172684 (The Journal of Cell Biology, 2003).
Changes are numbered by the printed parent chain. Numbers in names are those of the source.

Experiments:
Assay in all cases: ELISA
importin β F217A = importin β F217A (human, UniProt Q14974 1-876, F217A)
wild-type importin β = wild-type importin β (human, UniProt Q14974 1-876)
importin β I178A = importin β I178A (human, UniProt Q14974 1-876, I178A)
importin β E214A = importin β E214A (human, UniProt Q14974 1-876, E214A)
GST–RanGTP = GST–RanGTP (UniProt P62826 1-216)
[1] = target: T1, GST-tagged Nup153 (895–1475) ( (mammalian), UniProt P49790 895-1475)
T1 sequence (looked up): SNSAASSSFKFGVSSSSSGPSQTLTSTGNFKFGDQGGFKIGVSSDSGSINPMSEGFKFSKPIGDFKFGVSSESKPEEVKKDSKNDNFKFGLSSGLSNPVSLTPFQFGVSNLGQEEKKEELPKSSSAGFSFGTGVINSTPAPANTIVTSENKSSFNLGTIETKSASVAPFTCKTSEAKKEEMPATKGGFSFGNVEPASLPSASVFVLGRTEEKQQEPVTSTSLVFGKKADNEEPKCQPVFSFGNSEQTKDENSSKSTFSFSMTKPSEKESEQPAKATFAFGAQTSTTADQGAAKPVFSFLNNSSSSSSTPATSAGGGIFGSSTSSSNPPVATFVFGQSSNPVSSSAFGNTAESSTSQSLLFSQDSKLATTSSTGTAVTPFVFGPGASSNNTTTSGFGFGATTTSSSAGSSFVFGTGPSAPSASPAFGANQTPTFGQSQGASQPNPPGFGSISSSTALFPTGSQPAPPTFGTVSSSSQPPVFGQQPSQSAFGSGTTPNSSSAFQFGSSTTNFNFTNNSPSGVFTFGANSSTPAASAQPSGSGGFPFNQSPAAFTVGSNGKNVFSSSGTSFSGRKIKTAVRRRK

B1: GST-tagged full-length Nup62 (natural protein, UniProt P17955 1-525, looked up)
chain: MSGFNFGGTGAPAGGFTFGTAKTATTTPATGFSFSASGTGTGGFNFGTPSQPAATTPSTSLFSLATQTSTTQTPGFNFGTTPASGGTGFSLGISTPKLSLSSTAATPATANTGSFGLGSSTLTNAISGASTSSQGTAPTGFVFGSSTTSAPSTGTTGFSFTSGSASQPGASGFNIGSVGSLAQPTALSGSPFTPATLATTTAGATQPAAATPTAATTSAGSTLFASIAAAPASSSTTVLSLSAPATTAATPTAGTLGFSLKAPGAAPGASTTSTTTTTTTTTTTASTSSSTTTTGFALSLKPLVPAGPSSVAATALPASSTAVGTTTGPAMTYAQLESLINKWSLELEDQERHFLQQATQVNAWDRTLIENGEKITSLHREVEKVKLDQKRLDQELDFILSQQKELEDLLSPLEESVKEQSGTIYLQHADEEREKTYKLAENIDAQLKRMAQDLKDIIEHLNMAGGPADTSDPLQQICKILNAHMDSLQWVDQSSALLQRRVEEASRVCESRRKEQERSLRIAFD
Kd (importin β F217A): 227 ± 33.3 nM
Kd (wild-type importin β): 77.3 ± 11.6 nM
Kd (importin β I178A): 89 ± 9 nM
Kd (importin β E214A): 770 ± 123 nM

B2: importin β I178A/F217A/Y255A/I263R (m-N) (natural protein)
chain: MELITILEKTVSPDRLELEAAQKFLERAAVENLPTFLVELSRVLANPGNSQVARVAAGLQIKNSLTSKDPDIKAQYQQRWLAIDANARREVKNYVLQTLGTETYRPSSASQCVAGIACAEIPVNQWPELIPQLVANVTNPNSTEHMKESTLEAIGYICQDIDPEQLQDKSNEILTAIAQGMRKEEPSNNVKLAATNALLNSLEFTKANFDKESERHAIMQVVCEATQCPDTRVRVAALQNLVKIMSLYYQYMETAMGPALFARTIEAMKSDIDEVALQGIEFWSNVCDEEMDLAIEASEAAEQGRPPEHTSKFYAKGALQYLVPILTQTLTKQDENDDDDDWNPCKAAGVCLMLLATCCEDDIVPHVLPFIKEHIKNPDWRYRDAAVMAFGCILEGPEPSQLKPLVIQAMPTLIELMKDPSVVVRDTAAWTVGRICELLPEAAINDVYLAPLLQCLIEGLSAEPRVASNVCWAFSSLAEAAYEAADVADDQEEPATYCLSSSFELIVQKLLETTDRPDGHQNNLRSSAYESLMEIVKNSAKDCYPAVQKTTLVIMERLQQVLQMESHIQSTSDRIQFNDLQSLLCATLQNVLRKVQHQDALQISDVVMASLLRMFQSTAGSGGVQEDALMAVSTLVEVLGGEFLKYMEAFKPFLGIGLKNYAEYQVCLAAVGLVGDLCRALQSNIIPFCDEVMQLLLENLGNENVHRSVKPQILSVFGDIALAIGGEFKKYLEVVLNTLQQASQAQVDKSDYDMVDYLNELRESCLEAYTGIVQGLKGDQENVHPDVMLVQPRVEFILSFIDHIAGDEDHTDGVVACAAGLIGDLCTAFGKDVLKLVEARPMIHELLTEGRRSKTNKAKTLATWATKELRKLKNQA
Kd (GST–RanGTP): 3.9 ± 0.4 nM

B3: importin β (1–396) (domain or fragment, human, UniProt Q14974 1-396, looked up)
chain: MELITILEKTVSPDRLELEAAQKFLERAAVENLPTFLVELSRVLANPGNSQVARVAAGLQIKNSLTSKDPDIKAQYQQRWLAIDANARREVKNYVLQTLGTETYRPSSASQCVAGIACAEIPVNQWPELIPQLVANVTNPNSTEHMKESTLEAIGYICQDIDPEQLQDKSNEILTAIIQGMRKEEPSNNVKLAATNALLNSLEFTKANFDKESERHFIMQVVCEATQCPDTRVRVAALQNLVKIMSLYYQYMETYMGPALFAITIEAMKSDIDEVALQGIEFWSNVCDEEMDLAIEASEAAEQGRPPEHTSKFYAKGALQYLVPILTQTLTKQDENDDDDDWNPCKAAGVCLMLLATCCEDDIVPHVLPFIKEHIKNPDWRYRDAAVMAFGCILEG
Kd [1]: 1.2 ± 0.1 nM

B4: importin β m-N (1–396) (domain or fragment, human, UniProt Q14974 1-396, looked up)
chain: B3 chain with I178A, F217A, Y255A, I263R
Kd [1]: 160 ± 25.3 nM

B5: importin β (304–876) (domain or fragment, human, UniProt Q14974 304-876, looked up)
chain: GRPPEHTSKFYAKGALQYLVPILTQTLTKQDENDDDDDWNPCKAAGVCLMLLATCCEDDIVPHVLPFIKEHIKNPDWRYRDAAVMAFGCILEGPEPSQLKPLVIQAMPTLIELMKDPSVVVRDTAAWTVGRICELLPEAAINDVYLAPLLQCLIEGLSAEPRVASNVCWAFSSLAEAAYEAADVADDQEEPATYCLSSSFELIVQKLLETTDRPDGHQNNLRSSAYESLMEIVKNSAKDCYPAVQKTTLVIMERLQQVLQMESHIQSTSDRIQFNDLQSLLCATLQNVLRKVQHQDALQISDVVMASLLRMFQSTAGSGGVQEDALMAVSTLVEVLGGEFLKYMEAFKPFLGIGLKNYAEYQVCLAAVGLVGDLCRALQSNIIPFCDEVMQLLLENLGNENVHRSVKPQILSVFGDIALAIGGEFKKYLEVVLNTLQQASQAQVDKSDYDMVDYLNELRESCLEAYTGIVQGLKGDQENVHPDVMLVQPRVEFILSFIDHIAGDEDHTDGVVACAAGLIGDLCTAFGKDVLKLVEARPMIHELLTEGRRSKTNKAKTLATWATKELRKLKNQA
Kd [1]: 152 ± 17.5 nM
